Measurements from patent publication US20190375846A1 (ULTRAHUMAN ONE, published 2019).
One block for each binder: values may come before it.

Key:
human GITR-Fc [1] = molecular target: T1, human GITR-Fc (human, UniProt Q9Y5U5 26-161); assay: ELISA of IgG1 proteins
T1 construct: Recombinant GITR-Fc; also called hGITR-Fc; hGITR; not shown: Fc part
T1 sequence (looked up): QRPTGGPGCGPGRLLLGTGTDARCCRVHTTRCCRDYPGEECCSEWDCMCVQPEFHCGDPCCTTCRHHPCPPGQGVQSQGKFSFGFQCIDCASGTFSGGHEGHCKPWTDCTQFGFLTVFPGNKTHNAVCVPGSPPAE
Experimental: (§1) To coat Greiner Bio-One High bind ELISA plates, target proteins were diluted to 1 μg/ml in carbonate buffer and added at 100 μl per well, at 4° C., o/n. Coated plates were washed 3× with PBS pH7.4, blocked with 1% BSA in PBS (380 μl/well) for 1 hr at RT, then washed 3× with PBS-Tween 20 (PBST). GITR antibodies (100 μl/well; diluted in PBST) were then added and then incubated 1 hr at RT. Plates were then washed 3× with PBST and goat anti-human kappa chain-HRP added (100 μl/well) at RT, for 1 hr. Plates were then washed 3× with PBST and twice with PBS before the addition of 100 μl TMB per well. Reactions were stopped by adding 100 μl 2M H₂SO₄/well and OD was read on a plate reader at 450 nm. IgG binding analysis via ELISA on negatively charged biomolecular surfaces were performed as previously described (see Mouquet et al., 2010, Nature 467: 591-595).
To examine the influence of these mutations on immunogenicity and function, five further designer mutants (A6.1 to A6.5, see Table 4 for CDR sequences) were also submitted for Epibase analysis (Table 5). […] Cyno GITR binding was greatly diminished for all of clones A6.2 to A6.5.

[2] = molecular target: T2, cynomolgus monkey GITR-Fc (cynomolgus monkey (Macaca fascicularis)); assay: SPR (Biacore), Fab over GITR-Fc captured on anti-human Fc, 37 C, 1:1 model
T2 construct: also called cyno GITR-Fc; cGITR-Fc
Experimental: (§2) For affinity estimation, anti-human IgG Fc antibody was amine coupled at pH 5 onto three flow cells (Fc 1 to Fc 3) of a Biacore CM5 chip. The level of anti-Fc antibody immobilised onto the chip was approximately 550 RU. Human and cyno GITR-Fc and irrelevant receptor-Fc proteins were then captured onto the anti-Fc antibodies (by injecting over the antibody surface until nearly/completely saturated) in order that 80-100 RU were captured. Fab monomers were then injected over the Fc proteins captured on the chip at 37° C. a flow rate of 50 μl/min for 120 seconds, followed by Biacore running buffer (HBS-EP) being flowed over the chip for 240 seconds at 50 μl/min. The chip was regenerated between cycles using 2×15 second injections of 10 mM Glycine pH 2. The concentrations of Fab samples tested were 400, 200, 100, 50, 25, 12.5, and 6.25 nM. A Biacore running buffer control (0 nM) was also included as a control.
(§3) Monomeric Fab fragments were generated and flowed in the mobile phase on human and cyno GITR-Fc coated biosensor chips, to derive 1:1 binding values.

human GITR-Fc [3] = molecular target: T1, human GITR-Fc; assay: as above
Experimental: as §2, §3

[4] = molecular target: T2, cynomolgus monkey GITR-Fc; assay: SPR (Biacore), Fab over GITR-Fc captured on anti-human Fc
Experimental: as §2, §3

human GITR-Fc [5] = molecular target: T1, human GITR-Fc; assay: direct titration ELISA on coated human GITR-Fc, IgG1 0.001-1 µg/ml, OD 450 nm
Experimental: as §1
The 17 purified IgGs described above were then tested for binding to human and cyno GITR-Fc in direct titration ELISA format.

[6] = molecular target: T3, human GITR at the cell surface (human, UniProt Q9Y5U5 26-241); assay: flow cytometry, human GITR-transfected murine blastoma cells, 10,000-13.7 ng/ml
T3 construct: whole, on cells; The cell type is named in the assay field of each row; also called human GITR+ cells; CHO-K1 human GITR+ cells
T3 sequence (looked up): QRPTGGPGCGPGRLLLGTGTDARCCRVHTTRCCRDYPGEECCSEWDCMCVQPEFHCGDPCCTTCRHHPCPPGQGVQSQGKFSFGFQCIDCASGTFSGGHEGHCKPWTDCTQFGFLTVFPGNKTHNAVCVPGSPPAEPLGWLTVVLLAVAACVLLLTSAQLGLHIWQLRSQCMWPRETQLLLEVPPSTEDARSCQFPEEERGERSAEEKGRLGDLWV
Experimental: (§4) Concentration-dependent binding to GITR at the cell surface was analysed using flow cytometry.

[7] = molecular target: T3, human GITR at the cell surface; assay: flow cytometry on CHO-K1 human GITR+ cells; competitor: soluble human GITRL
human GITR-Fc [8] = molecular target: T1, human GITR-Fc; assay: HTRF competition: unlabelled IgG1 titrated 0.003-100 µg/ml against terbium-labelled VH1/VL1 IgG on biotinylated human GITR-Fc with SA-XL665, 665/615 ratio
Experimental: A competition HTRF assay was established to examine epitope competition against VH1/VL1 IgG by grafted and library-derived clones. The purified VH1/VL1 IgG was labelled with terbium using a labelling kit (CisBio) per the manufacturers instructions. The final reaction mix contained biotinylated human GITR-Fc, SA-XL665 (CisBio), terbium-labelled parental […], and competitor IgG of interest, prepared as described above, in a total reaction volume of 20 μl in 1× assay buffer [50 mM sodium phosphate, pH 7.5, 400 mM potassium fluoride, and 0.1% BSA (w/v)]. Reagents were added sequentially on a MiniTrak Liquid Handling Platform (Perkin-Elmer) into 384-well low-volume black plates (Nunc). Reactions proceeded for 1 h at room temperature, and plates were subsequently read on a plate reader with excitation at 340 nm and two emission readings at 615 nm (measuring input donor fluorescence from VH1-VL1-cryptate) and 665 nm (measuring output acceptor fluorescence from SAXL665). Readings were expressed as 665 nm/615 nm ratios.
To examine the competition of the library-derived clones with the unaltered, closest-germline grafted CDRs of VH1/VL1 IgG, an Homogeneous Time Resolved Fluorescence (HTRF) assay was established. This assay incorporated terbium-labelled VH1/VL1 IgG, Biotinylated hGITR-Fc and streptavidin-XL665, in solution-phase binding. […]

[9] = molecular target: T3, human GITR at the cell surface; assay: cell-based or functional assay
[10] = molecular target: T4, cynomolgus monkey GITR at the cell surface (cynomolgus monkey); assay: cell-based or functional assay
[11] = molecular target: T4, cynomolgus monkey GITR at the cell …; assay: flow cytometry, cyno GITR-transfected murine blastoma cells, 10,000-13.7 ng/ml
Experimental: as §4

B1: A6.1 IgG1 (antibody, V domains shown)
VH: EVQLVESGGGLVQPGGSLRLSCAASGFSLSTSGYGVGWVRQAPGKGLEWLAHIWWDDDKYYVDSVKGRFTISRDNAKNSLYLQMNSLRAEDTAVYYCARTRQYFPFAYWGQGTLVTVSS
VL: EIVLTQSPATLSLSPGERATLSCRASQSVGSNLAWYQQKPGQAPRLLIYSASNRYTGIPARFSGSGSGTDFTLTISSLEPEDFAVYYCQQYSTDPLTFGGGTKVEIK
notes: Human IgG1, designer mutant of D-A6; built as m28; also called D-A6.1; Clone A6.1
- binding result (human GITR-Fc [1]): binds

B2: A6.2 IgG1 (antibody, V domains shown)
VH: EVQLVESGGGLVQPGGSLRLSCAASGFSLSTSGYGVGWVRQAPGKGLEWLAHIWWDDDKYYVDSVKGRFTISRDNAKNSLYLQMNSLRAEDTAVYYCARTRQYFPFAYWGQGTLVTVSS
VL: EIVLTQSPATLSLSPGERATLSCRASQSVGSNLAWYQQKPGQAPRLLIYSASNRYTGIPARFSGSGSGTDFTLTISSLEPEDFAVYYCQQYSTNPLTFGGGTKVEIK
notes: Human IgG1, designer mutant of D-A6; built as m28; also called Clone A6.2
- binding result (human GITR-Fc [1]): binds

B3: D-A6 Fab (Fab, V domains shown)
VH: EVQLVESGGGLVQPGGSLRLSCAASGFSLSTSGYGVGWVRQAPGKGLEWLAHIWWDDDKYYVDSVKGRFTISRDNAKNSLYLQMNSLRAEDTAVYYCARTRQYFPFAYWGQGTLVTVSS
VL: EIVLTQSPATLSLSPGERATLSCRASQSVGSNLAWYQQKPGQAPRLLIYSASYRYTGIPARFSGSGSGTDFTLTISSLEPEDFAVYYCQQYSTDPLTFGGGTKVEIK
notes: v-domains built as m25; also called D-A6 Fab fragment
- Kd [2]: 57 nM
- koff [2]: 0.0021 s⁻¹
- kon [2]: 37000 M⁻¹ s⁻¹
- Kd (human GITR-Fc [3]): 120 nM
- koff (human GITR-Fc [3]): 0.011 s⁻¹
- kon (human GITR-Fc [3]): 92000 M⁻¹ s⁻¹
- fold improved affinity against VH1/VL1 Fab [4]: ~4 fold

B4: MH IgG1 (Maximally Humanized designer clone) (antibody, V domains shown)
VH: EVQLVESGGGLVQPGGSLRLSCAASGFSLSTSGYGMSWVRQAPGKGLEWVAHIWWDDEKYYVDSVKGRFTISRDNAKNSLYLQMNSLRAEDTAVYYCARTRQYFPFAYWGQGTLVTVSS
VL: EIVLTQSPATLSLSPGERATLSCRASQSVGSNLAWYQQKPGQAPRLLIYSASYRATGIPARFSGSGSGTDFTLTISSLEPEDFAVYYCQQYSTDPLTFGGGTKVEIK
notes: Human IgG1, designer clone; also called Clone MH
- binding result (human GITR-Fc [5]): binds

B8: VH1/VL1 IgG1 (antibody, V domains shown)
VH: QVTLRESGPALVKPTQTLTLTCTFSGFSLSTSGMGVGWIRQPPGKALEWLAHIWWDDDKYYNPSLKSRLTISKDTSKNQVVLTMTNMDPVDTATYYCARTRRYFPFAYWGQGTLVTVSS
VL: EIVMTQSPATLSVSPGERATLSCKASQNVGTNVAWYQQKPGQAPRLLIYSASYRYSGIPARFSGSGSGTEFTLTISSLQSEDFAVYYCQQYNTDPLTFGGGTKVEIK
notes: Full-length human IgG1; also called hVH1/VL1; G-VH1/VL1
- concentration at maximum MFI [6]: ~1110 ng/mL
- fold reduction of binding signal in the presence of 10 µg/ml soluble GITRL [7]: > 10 fold
- IC50 (read off the curve) (human GITR-Fc [8]): ~1 µg/mL
- EC50 of FcγRIIIa activation, Promega ADCC reporter assay, CHO-K1 target cells expressing human GITR [9]: 35.6 nM
- EC50 of FcγRIIIa activation, Promega ADCC reporter assay, CHO-K1 target cells expressing cyno GITR [10]: 160 nM
- concentration at maximum MFI [11]: ~1110 ng/mL

B9: VH1/VL1 Fab (Fab, V domains shown)
VH: QVTLRESGPALVKPTQTLTLTCTFSGFSLSTSGMGVGWIRQPPGKALEWLAHIWWDDDKYYNPSLKSRLTISKDTSKNQVVLTMTNMDPVDTATYYCARTRRYFPFAYWGQGTLVTVSS
VL: EIVMTQSPATLSVSPGERATLSCKASQNVGTNVAWYQQKPGQAPRLLIYSASYRYSGIPARFSGSGSGTEFTLTISSLQSEDFAVYYCQQYNTDPLTFGGGTKVEIK
notes: also called VH1/VL1 Fab fragment
- Kd [2]: 270 nM
- koff [2]: 0.0061 s⁻¹
- kon [2]: 22000 M⁻¹ s⁻¹
- Kd (human GITR-Fc [3]): 110 nM
- koff (human GITR-Fc [3]): 0.0051 s⁻¹
- kon (human GITR-Fc [3]): 45000 M⁻¹ s⁻¹

More lines, now with the values ahead:

- binding result (human GITR-Fc [1]): binds
B5: A6.5 IgG1 (antibody, V domains shown)
VH: EVQLVESGGGLVQPGGSLRLSCAASGFSLSTSGYGMGWVRQAPGKGLEWLAHIWWDDDKYYVDSVKGRFTISRDNAKNSLYLQMNSLRAEDTAVYYCARTRQYFPFAYWGQGTLVTVSS
VL: EIVLTQSPATLSLSPGERATLSCRASQSVGSNLAWYQQKPGQAPRLLIYSASNRYTGIPARFSGSGSGTDFTLTISSLEPEDFAVYYCQQYSTDPLTFGGGTKVEIK
notes: Human IgG1, designer mutant of D-A6; built as m28; also called Clone A6.5

- binding result (human GITR-Fc [1]): binds
B6: A6.3 IgG1 (antibody, V domains shown)
VH: EVQLVESGGGLVQPGGSLRLSCAASGFSLSTSGYGVSWVRQAPGKGLEWLAHIWWDDDKYYVDSVKGRFTISRDNAKNSLYLQMNSLRAEDTAVYYCARTRQYFPFAYWGQGTLVTVSS
VL: EIVLTQSPATLSLSPGERATLSCRASQSVGSNLAWYQQKPGQAPRLLIYSASNRYTGIPARFSGSGSGTDFTLTISSLEPEDFAVYYCQQYSTDPLTFGGGTKVEIK
notes: Human IgG1, designer mutant of D-A6; built as m28; also called Clone A6.3

- binding result (human GITR-Fc [1]): binds
B7: A6.4 IgG1 (antibody, V domains shown)
VH: EVQLVESGGGLVQPGGSLRLSCAASGFSLSTSGYGMSWVRQAPGKGLEWLAHIWWDDDKYYVDSVKGRFTISRDNAKNSLYLQMNSLRAEDTAVYYCARTRQYFPFAYWGQGTLVTVSS
VL: EIVLTQSPATLSLSPGERATLSCRASQSVGSNLAWYQQKPGQAPRLLIYSASNRYTGIPARFSGSGSGTDFTLTISSLEPEDFAVYYCQQYSTDPLTFGGGTKVEIK
notes: Human IgG1, designer mutant of D-A6; built as m28; also called Clone A6.4
